This is an account of results in US20240294650A1 (Alector, published 2024).

Where a chain is given by its changes, count along the chain named.

Assay [1] concerns the target T1, endogenous murine MerTK on bone marrow-derived macrophages (mouse, UniProt Q60805 19-994).
T1 construct: whole, on cells; MFI on MerTK KO BMDM subtracted; also called BMDM WT-KO
T1 sequence (looked up): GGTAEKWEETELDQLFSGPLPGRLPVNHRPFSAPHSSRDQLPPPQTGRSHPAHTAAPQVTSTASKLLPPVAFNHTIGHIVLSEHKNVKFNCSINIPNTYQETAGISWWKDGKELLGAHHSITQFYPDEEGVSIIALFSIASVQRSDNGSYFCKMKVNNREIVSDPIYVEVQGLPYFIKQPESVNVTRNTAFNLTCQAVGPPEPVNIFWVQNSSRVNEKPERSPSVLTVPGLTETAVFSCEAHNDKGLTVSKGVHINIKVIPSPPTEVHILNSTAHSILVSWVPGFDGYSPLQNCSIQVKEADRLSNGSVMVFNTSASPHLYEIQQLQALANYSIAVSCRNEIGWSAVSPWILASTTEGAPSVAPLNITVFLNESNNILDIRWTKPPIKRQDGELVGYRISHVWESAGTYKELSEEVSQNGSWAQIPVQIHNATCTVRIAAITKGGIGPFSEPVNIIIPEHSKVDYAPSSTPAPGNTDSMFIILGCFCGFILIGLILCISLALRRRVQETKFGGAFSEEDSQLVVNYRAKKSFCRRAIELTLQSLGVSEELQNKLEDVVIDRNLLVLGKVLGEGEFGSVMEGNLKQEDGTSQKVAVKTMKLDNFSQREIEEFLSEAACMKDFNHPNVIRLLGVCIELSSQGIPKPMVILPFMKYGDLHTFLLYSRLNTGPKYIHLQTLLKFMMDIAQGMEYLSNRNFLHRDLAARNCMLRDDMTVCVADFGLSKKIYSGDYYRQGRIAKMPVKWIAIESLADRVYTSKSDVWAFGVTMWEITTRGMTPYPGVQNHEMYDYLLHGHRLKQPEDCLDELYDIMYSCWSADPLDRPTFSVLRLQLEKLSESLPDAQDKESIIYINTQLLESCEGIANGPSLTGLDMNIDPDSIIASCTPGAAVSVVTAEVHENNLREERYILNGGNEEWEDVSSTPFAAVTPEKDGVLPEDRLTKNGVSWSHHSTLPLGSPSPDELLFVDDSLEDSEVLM
As to the kind of experiment: FACS, mouse BMDM, WT minus MerTK KO. How it is done: (§1) To determine whether recombinant anti-human MerTK antibodies of the present disclosure bind to human MerTK endogenously expressed on SK-MEL-5 cells and CHO cells overexpressing mouse MerTK (CHO-muMerTK OE cells), as compared to A375 and parental CHO cells as negative controls, the following experiments were performed. SK-MEL-5 cells, A375 cells, CHO-muMerTK OE cells, and CHO parental cells were plated at 100,000 cells/well. Anti-MerTK antibodies were added to the cells at 10 μg/ml. After 60 minutes on ice, cells were washed and then stained with PE-conjugated goat anti-human IgG antibody (Southern Biotech Cat #2040-09, Birmingham, AL) in the presence of Fc block solution on ice for 30 minutes, and then washed twice with cold FACS buffer (2% FBS in PBS). Mouse anti-human MerTK-PE conjugated (Biolegend, Clone 590H11G1E3) or anti-mouse MerTK-PE conjugated (ThermoFisher, Clone DS5MMER) antibodies were used as positive controls. Stained cells were acquired on a BD FACS Canto II cytometer and the mean fluorescence intensity (MFI) was calculated with FlowJo.
To confirm anti-MerTK antibody binding to endogenous murine MerTK, bone marrow-derived macrophages (BMDM) were isolated from MerTK wild type (WT) and knockout (KO) mice (The Jackson Laboratory, Cat #011122) using standard protocols. Briefly, cells isolated from the bone marrow were plated in the presence of 50 ng/ml M-CSF (R&D Systems, Cat #416-ML) for seven days to allow for differentiation into macrophages. Cell staining, FACs, and MFI were performed and calculated as described above.
(In general: Flow cytometry measures light scatter and fluorescence of single cells or particles in a stream.)

In the next assay the target is T2, human MerTK (human, UniProt Q12866 21-999).
T2 construct: endogenous receptor on cells; also called human MerTK endogenously expressed on SK-MEL-5 cells; MerTK on human macrophages
T2 sequence: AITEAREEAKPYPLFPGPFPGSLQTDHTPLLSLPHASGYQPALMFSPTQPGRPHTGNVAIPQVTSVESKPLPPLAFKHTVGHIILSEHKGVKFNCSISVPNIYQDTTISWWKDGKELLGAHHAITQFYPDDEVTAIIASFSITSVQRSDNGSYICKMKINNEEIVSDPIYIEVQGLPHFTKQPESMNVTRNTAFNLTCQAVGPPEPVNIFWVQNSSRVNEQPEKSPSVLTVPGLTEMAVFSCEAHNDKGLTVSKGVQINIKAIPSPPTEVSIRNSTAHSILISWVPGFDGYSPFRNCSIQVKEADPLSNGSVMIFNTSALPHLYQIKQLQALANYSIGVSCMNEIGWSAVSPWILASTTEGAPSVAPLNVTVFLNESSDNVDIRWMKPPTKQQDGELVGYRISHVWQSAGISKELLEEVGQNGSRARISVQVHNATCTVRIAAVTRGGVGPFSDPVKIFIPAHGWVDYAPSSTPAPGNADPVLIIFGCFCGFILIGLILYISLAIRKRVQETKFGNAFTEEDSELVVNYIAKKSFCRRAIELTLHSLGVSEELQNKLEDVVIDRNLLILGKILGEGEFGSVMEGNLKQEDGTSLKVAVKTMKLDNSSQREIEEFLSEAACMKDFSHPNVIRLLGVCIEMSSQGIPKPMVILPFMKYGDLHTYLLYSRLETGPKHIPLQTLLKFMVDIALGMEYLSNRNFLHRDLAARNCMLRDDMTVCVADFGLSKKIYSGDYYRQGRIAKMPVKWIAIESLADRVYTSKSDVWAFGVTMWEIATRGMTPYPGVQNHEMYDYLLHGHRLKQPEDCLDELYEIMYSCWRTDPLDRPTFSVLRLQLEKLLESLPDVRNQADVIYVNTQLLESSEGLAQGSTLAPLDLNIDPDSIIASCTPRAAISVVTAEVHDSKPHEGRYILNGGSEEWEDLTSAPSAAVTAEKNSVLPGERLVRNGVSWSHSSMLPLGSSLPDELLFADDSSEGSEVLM
Nature of the assay: FACS, SK-MEL-5 cells, 10 ug/ml. How it is done:
as §1

B1: MTK-203 (antibody, human IgG1, V domains shown)
VH: QVQLQQPGAELVKPGASVKVSCKASGYTFTNYWMHWVKQRPGQGLEWIGRIHPFDTETNDNQKFKGKATLTVDKSSSTAYMQLSSLTSEDSAVYYCVIPANGGFAYWGQGTLVTVSA
VL: ETTVTQSPASLSVATGEKVTIRCITSTDIGDDMNWYQQKPGEPPKVLISEGNSLRPGVPSRFSSSGYGTDFVFTIENTLSEDVADYFCLQSDNLPLTFGSGTKLEIK
In assay [1], B1 had an MFI of 2980 MFI.

B2: MTK-201 (antibody, human IgG1, V domains shown)
VH: QVQLRQSGPGLVQPSQSLSITCTVSGFSLSNYGLHWVRQSPGKGLEWLGVIWSGGITDYNAAFISRLSIIKDNSRSQVFFKMNSLQADDTAIYYCARKGHDPYAMDFWGQGTSVTVSS
VL: QIVLTQSPPIMSAFLGERVTMTCTASSSVSSSYLHWYRQMPGSSPKLWIYDTSNLASGVPARFSGSGSGTSYSLTISSMEAEDAATYYCHQYHHSPYTFGGGTKLEIK
For the molecule B2, in the assay with human MerTK, the MFI is 40300 MFI.

B3: MTK-224 (antibody, human IgG1, V domains shown)
VH: QVQLQQPGAELVKPGASVKVSCKASGYTFTSYWMHWVKQRPGQGLEWIGRIHPFDSDTNYNQKFKGKATLTVDKSSSTAYMQLSSLTSEDSAVYYCSIAGFAYWGQGTLVTVSA
VL: DIVMTQSPATLSVTPGDRVSLSCRASQIISDYLNWYQQKSHESPRLLIKYASQSISGIPSRFSGSGSGSDFTLSINSVEPEDVGVYYCQNGHSFPLTFGAGTKLELK
B3: the MFI in assay [1] came out at 1860 MFI.

B4: MTK-209 (antibody, human IgG1, V domains shown)
VH: B3 VH with S31N, M34I, D57E, T58P, Q82H, S84T, S97A, I98L, G100S
VL: ETTVTQSPASLSMAMGEKATIRCITSTDIDDKMNWYQQKPGKPPKLLISAGNTLRPGVPSRFSSSGYGTDFVLTVENMLSEDVADYYCLQGGALPLTFGSGTKLEIK
In assay [1], B4 showed an MFI of 813 MFI.

B5: MTK-221 (antibody, human IgG1, V domains shown)
VH: QVTLKESGPGMLQSSQTLSLTCSFSGFSLSTSGMGVSWIRQPSGKGLEWLAHIYWDDDKRYNTSLQSRLTISKDTSRNQVFLKITSVDTADTATYFCGRLGAYSAFPYYFDYWGQGTTLTVSS
VL: DIQMTQSPSSLSASLGGKVTITCKASQDIHKHIAWYQHKPGKGPRLLIHYTSTLQPGIPSRFSGSGSGRDYSFSISNLEPEDLATYYCLQYDNLWTFGGGTKLEIK
B5 returned an MFI with human MerTK of 42800 MFI.

B6: MTK-216 (antibody, human IgG1, V domains shown)
VH: EVQLVESGGGLVKPGGSLKLSCAASGFTFSDYGMHWVRQAPEKGLEWVAFISSGSTTIYYADTVKGRFTISRDNAKNTLILQMTSLRSEDTAIYYCTRGGFHLDYWGQGTTLTVSS
VL: SIMMTQSPSSLAVSAGEKVTMGCKSSQSVLYSANQQNYLAWYQQKPGQSLKLLIYWASTRESGVPDRFTGSGSGTDFTLTISSVQAEDLAVYYCHQYFSSWTFGGGTKLEIK
On to B6, for which the MFI with human MerTK is 43300 MFI.

B7: MTK-230 (antibody, human IgG1, V domains shown)
VH: EVQLQQSGPELVKPGASVRIPCKASGYTFSDYNMDWVKQSHGKSLEWIGNINPNIGGTIYSQKFKGKATLTVDKSSSTAYMELRSLTSEDTAVYYCARGDYGFASWGQGTLVTVSA
VL: DIVLTQSPASLTVSLGQRATISCRASRSVSTSGYSYMHWYQQKPGQPPKLLIYLASNLESGVPARFSGSRSGTDFTLNIHPVEEEDAATYYCQHSREYPFTFGSGTKLEIK
Turning to B7, the MFI in assay [1] was 9120 MFI.

B8: MTK-214 (antibody, human IgG1, V domains shown)
VH: QVQLQQPGAELVKPGASVKVSCKASGYTFTNYWMHWMKQRPGQGLEWIGRIHPFDSDTNYNEKFTDKATLTVDKSSSTAYMQLSSLTSEDSAVYYCAIGTLIYWGQGTTLTASS
VL: DILLTQSPATLSVTPGETVSLSCRASQSIYKKLHWFQQRSHRSPRLLIKFASDSISGIPSRFTGSGSGTDYTLSINSVKPEDEAIYYCLQGYSTPLTFGAGTKLELK
Molecule B8 came in with an MFI in assay [1] of 2950 MFI.

B9: MTK-208 (antibody, human IgG1, V domains shown)
VH: QVQLQQPGAELVVPGASVRLSCKASGYTFINYWMHWVKQRPGQGLEWIGEIDPSDSYANYNQKFKDKSTLSLDKSSSTAYMQLSSLTSEDSAVYYCARCDYYGRLDYWGQGTTLTVSS
VL: QVVLTQSPAIMSASPGEKVTITCSASSSVSYMLWFQQKPGTSPKLWIYSTSNLASGVPARFSGSGSGTSYSLTISRLEAEDAATYYCQQRSSYPPITFGAGTKLELK
Molecule B9 gave an MFI with human MerTK of 14100 MFI.

B10: MTK-227 (antibody, human IgG1, V domains shown)
VH: EVKLVESGGGLVQPGGSLSLSCAASGFTFTDNYMTWVRQPPGKALEWLGFSRNKANGYTTEYSASVKGRFTISRDSSQSILYLQMNALRAEDSGTYYCARFPPHYYAGGYFDVWGTGTTVTVSS
VL: DIQMTQSPASLSASVGETVTITCRASENIYSYLAWYQQKQGKSPQLLVYNAKTLAEGVPSRFSGSGSGTQFSLKINSLQPADFGSYYCQHYYRTPPTFGGGTKLEIK
For B10, the MFI in the assay with human MerTK turned out to be 40900 MFI; in assay [1], 5020 MFI.

B11: MTK-210 (antibody, human IgG1, V domains shown)
VH: QVQLQQSGPELVKPGASVKISCKASDYEFSRSWMNWVKQRPGKGLEWIGRIYPGDGDTNYNGKFKGKATLTADKSSNTAYMQLNSLTSEDSAVYFCARKGGYYYSISNYFDYWGQGTTLTVSS
VL: QIVLTQSPAIMSASPGVKVTMTCSASSSVSYMHWYQQKPGSSPRLLIYDTSNLASGVPVRFSGSGSGTSYSLTISRMEAEDAATYYCQQWSSYPPYTFGGGTKLEIK
For the molecule B11, the MFI with human MerTK was 29900 MFI.

B12: MTK-228 (antibody, human IgG1, V domains shown)
VH: QDQLQQSGPELVKPGASVKISCKASGYSFTSYYIHWVKQRPGQGLEWVGWIFPGNGNTKYNERFKGKATLTADTSSSTAYMQLSSLTSEDSAVYYCARLGLIYALDYWGQGTSVTVSS
VL: DAVMTQTPLSLPVSLGDQASISCRSSQSLENSNGNTYLHWYLQKPGQSPQLLIYRVSNRFSGVLDRFSGSGSGTDFTLKISRVEAEDLGVYFCLQVTHVPFTFGSGTKLEIK
B12: the figures for the MFI (in the assay with human MerTK; in assay [1]) were 60200 MFI and 7370 MFI, respectively.

B13: MTK-218 (antibody, human IgG1, V domains shown)
VH: B12 VH with D2V, A16T, E46D, V48I, G56R, K59Q, R63K
VL: B12 VL with N35H, L64Q
As to B13, the MFI with human MerTK is 49000 MFI; in assay [1] it was 11800 MFI.
